Test results reported in US20060259987A1 (UNIVERSITY OF UTAH RESEARCH FOUNDATION, published 2006).
One block for each binder: values may come before it.

Assays:
thrombin [1] = molecular target: T1, thrombin (human, UniProt P00734 328-622); test: Kapp IIa/hep relative to plasma.at3
thrombin [2] = molecular target: T1, thrombin; test: thrombin +hep: pseudo-first-order loss of chromogenic activity with heparin
Method: (§1) Polybrene was added with the chromogenic substrate to quench the heparin dependent reaction. The observed pseudo-first-order rate constants were calculated for each heparin (1 nM-5 nM) concentration from the slope of the log of residual proteinase activity vs. time. This was plotted against the heparin concentration to calculate the second-order rate constant for the inhibition by the heparin-ATIII complex, (Kₕₑₚ) from the equation Kobs=Kₕₑₚ[H]ₒ([AT]ₒ/[AT]ₒ+Kd)+Kuncat[AT]ₒ

thrombin [3] = molecular target: T1, thrombin; test: Kapp IIa/prog relative to plasma.at3
factor Xa [4] = molecular target: T2, factor Xa (human, UniProt P00742 41-179; P00742 235-488, limits assumed); test: Kapp fXa/prog relative to plasma.at3
T2 construct: also called fXa; human factor Xa
T2 sequence (P00742 41-179 limits assumed, chain 1 of 2): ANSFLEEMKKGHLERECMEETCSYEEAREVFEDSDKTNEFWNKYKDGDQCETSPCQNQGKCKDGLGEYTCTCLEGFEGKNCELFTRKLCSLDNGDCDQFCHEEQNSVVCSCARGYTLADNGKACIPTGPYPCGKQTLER
T2 sequence (P00742 235-488 limits assumed, chain 2 of 2): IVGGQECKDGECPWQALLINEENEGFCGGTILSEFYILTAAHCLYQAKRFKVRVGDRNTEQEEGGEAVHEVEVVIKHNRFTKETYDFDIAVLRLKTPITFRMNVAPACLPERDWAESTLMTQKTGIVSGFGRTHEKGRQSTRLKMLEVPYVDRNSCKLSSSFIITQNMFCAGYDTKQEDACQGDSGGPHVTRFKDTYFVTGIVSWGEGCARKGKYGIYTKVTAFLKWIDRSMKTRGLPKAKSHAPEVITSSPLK

thrombin [5] = molecular target: T1, thrombin; test: cell-based or functional assay
factor Xa [6] = molecular target: T2, factor Xa; test: cell-based or functional assay
factor Xa [7] = molecular target: T2, factor Xa; test: Kapp fXa/hep relative to plasma.at3
thrombin [8] = molecular target: T1, thrombin; test: thrombin prog: pseudo-first-order loss of chromogenic activity, no heparin, 25 C
Method: (§2) Polybrene was added with the chromogenic substrate to quench the heparin dependent reaction. […] This was plotted against the heparin concentration to calculate the second-order rate constant for the inhibition by the heparin-ATIII complex, (Kₕₑₚ) from the equation Kobs=Kₕₑₚ[H]ₒ([AT]ₒ/[AT]ₒ+Kd)+Kuncat[AT]ₒ

factor Xa [9] = molecular target: T2, factor Xa; test: factor Xa +hep: pseudo-first-order loss of chromogenic activity with heparin
Method: as §1

factor Xa [10] = molecular target: T2, factor Xa; test: factor Xa prog: pseudo-first-order loss of chromogenic activity, no heparin, 25 C
Method: as §2

factor Xa [11] = molecular target: T3, factor Xa (human, UniProt P00742 41-179; P00742 235-488, limits assumed); test: heparin cofactor assay, HCA expt #3; ATIII titrated on 10 nM fXa + 50 ug/ml UFH, chromogenic readout
T3 construct: Active factor Xa has a light and a heavy chain; also called fXa
Method: (§3) After 3 minutes, the reactions were quenched with polybrene and chromogenic substrate S2238 (thrombin) or S2765 (fXa), and the initial rate of chromophore production (405 nm) recorded to obtain a measurement residual, uninhibited thrombin or factor Xa. IC50s were determined from plots of ATIII concentration vs. percent residual target enzyme activity.
T3 sequence (P00742 41-179 limits assumed, form in doubt, chain 1 of 2): as the sequence (P00742 41-179 limits assumed, chain 1 of 2) above
T3 sequence (P00742 235-488 limits assumed, form in doubt, chain 2 of 2): as the sequence (P00742 235-488 limits assumed, chain 2 of 2) above

thrombin [12] = molecular target: T4, thrombin (human, UniProt P00734 328-622); test: heparin cofactor assay, HCA expt #3; ATIII titrated on 10 nM thrombin + 50 ug/ml UFH, chromogenic readout
Method: as §3

thrombin [13] = molecular target: T4, thrombin; test: cell-based or functional assay; remark: listed apart in the source
factor Xa [14] = molecular target: T3, factor Xa; test: cell-based or functional assay; remark: listed apart in the source
thrombin [15] = molecular target: T4, thrombin; test: heparin cofactor assay, HCA expt #2; ATIII titrated on 10 nM thrombin + 50 ug/ml UFH, chromogenic readout
Method: as §3

factor Xa [16] = molecular target: T3, factor Xa; test: heparin cofactor assay, HCA expt #2; ATIII titrated on 10 nM fXa + 50 ug/ml UFH, chromogenic readout
Method: as §3

B1: LEAI.474 (other)
chain: SPVDICTAKPRDIPMNPMCIYRSPEKKATEDEGSEQKIPEATNRRVWELSKANSRFATTFYQHLADSKNDNDNIFLSPLSISTAFAMTKLGACNDTLQQLMEVFKFDTISEKTSDQIHFFFAKLNCRLYRKANKASKLVSANRLFGDKSLTFNETYQDISELVYGAKLQPLDFKENAEQSRAAINKWVSNKTEGRITDVIPSEAINELTVLVLVNTIYFKGLWKSKFSPENTRKELFYKADGESCSASMMYQEGKFRYRRVAEGTQVLELPFKGDDITMVLILPKPEKSLAKVEKELTPEVLQEWLDELEEMMLVVHMPRFRIEDGFSLKEQLQDMGLVDLFSPEKSKLPGIVAEGRDDLYVSDAFHKAFLEVNEEGSEAAASTALEAQGRSLNPNRVTFKANRPFLVFIREVPLNTIIFMGRVANPCVK
notes: also called DES.LEAI.474
Kapp as a percentage of the plasma ATIII value (thrombin [1]): 34%
kapp (apparent second-order inhibition rate constant) (thrombin [2]): 2.01e+06 M⁻¹ s⁻¹
Kapp as a percentage of the plasma ATIII value (thrombin [3]): 38%
Kapp as a percentage of the plasma ATIII value (factor Xa [4]): 510%
IC50 IIa/UFH; HCA #2 (thrombin [5]): 65 nM
IC50 IIa/UFH; HCA #3 (thrombin [5]): 47 nM
IC50 IIa/UFH; HCA #4 (thrombin [5]): 50 nM
rsd. IIa catG; CA #12; stg1 conc 200 (thrombin [5]): 1%
rsd. IIa catG; CA #14; stg1 conc 200 (thrombin [5]): 1%
rsd. IIa catG; CA #15; stg1 conc 200 (thrombin [5]): 1%
rsd. IIa hne; CA #14; stg1 conc 200 (thrombin [5]): 2%
rsd. IIa hne; CA #15; stg1 conc 200 (thrombin [5]): 6%
rsd. IIa no add; CA #14; stg1 conc 200 (thrombin [5]): 2%
rsd. IIa no add; CA #15; stg1 conc 200 (thrombin [5]): 0%
IC50 fXa/UFH; HCA #2 (factor Xa [6]): 20 nM
IC50 fXa/UFH; HCA #3 (factor Xa [6]): 16 nM
IC50 fXa/UFH; HCA #4 (factor Xa [6]): 13 nM
rsd. Xa catG; CA #12; stg1 conc 200 (factor Xa [6]): 1%
rsd. Xa catG; CA #14; stg1 conc 200 (factor Xa [6]): 1%
rsd. Xa catG; CA #15; stg1 conc 200 (factor Xa [6]): 0%
rsd. Xa hne; CA #14; stg1 conc 200 (factor Xa [6]): 1%
rsd. Xa hne; CA #15; stg1 conc 200 (factor Xa [6]): 1%
rsd. Xa no add; CA #14; stg1 conc 200 (factor Xa [6]): 2%
rsd. Xa no add; CA #15; stg1 conc 200 (factor Xa [6]): 0%
Kapp as a percentage of the plasma ATIII value (factor Xa [7]): 217%
kapp (apparent second-order inhibition rate constant) (thrombin [8]): 2680 M⁻¹ s⁻¹
kapp (apparent second-order inhibition rate constant) (factor Xa [9]): 1.25e+06 M⁻¹ s⁻¹
kapp (apparent second-order inhibition rate constant) (factor Xa [10]): 10700 M⁻¹ s⁻¹

B3: 7EVEA.452 (other)
chain: SPVDICTAKPRDIPMNPMCIYRSPEKKATEDEGSEQKIPEATNRRVWELSKANSRFATTFYQHLADSKNDNDNIFLSPLSISTAFAMTKLGACNDTLQQLMEVFKFDTISEKTSDQIHFFFAKLNCRLYRKANKASKLVSANRLFGDKSLTFNETYQDISELVYGAKLQPLDFKENAEQSRAAINKWVSNKTEGRITDVIPSEAINELTVLVLVNTIYFKGLWKSKFSPENTRKELFYKADGESCSASMMYQEGKFRYRRVAEGTQVLELPFKGDDITMVLILPKPEKSLAKVEKELTPEVLQEWLDELEEMMLVVHMPRFRIEDGFSLKEQLQDMGLVDLFSPEKSKLPGIVAEGRDDLYVSDAFHKAFLEVNEEGSEAAASTEVELAGRSLNPNRVTFKANRPFLVFIREVPLNTIIFMGRVANPCVK
modifications: N-linked glycans added by Drosophila S2 cells; not carried by the letters
notes: Made in Drosophila S2 cells (DES) on the S137A background; N-terminus printed as SPVDI---
IC50 (factor Xa [11]): 24 nM
IC50 (thrombin [12]): 750 nM
Rsd. IIa No add; CA expt #8; stg1 conc 200 (thrombin [13]): 12 % of activity without ATIII
rsd. IIa catG; CA expt #8; stg1 conc 200 (thrombin [13]): 14 % of activity without ATIII
rsd. IIa hne; CA expt #8; stg1 conc 200 (thrombin [13]): 46 % of activity without ATIII
rsd. Xa catG; CA expt #8; stg1 conc 200 (factor Xa [14]): 1 % of activity without ATIII
rsd. Xa hne; CA expt #8; stg1 conc 200 (factor Xa [14]): 2 % of activity without ATIII
rsd. Xa no add; CA expt #8; stg1 conc 200 (factor Xa [14]): 1 % of activity without ATIII

B5: 7EVEA.451 (other)
chain: SPVDICTAKPRDIPMNPMCIYRSPEKKATEDEGSEQKIPEATNRRVWELSKANSRFATTFYQHLADSKNDNDNIFLSPLSISTAFAMTKLGACNDTLQQLMEVFKFDTISEKTSDQIHFFFAKLNCRLYRKANKASKLVSANRLFGDKSLTFNETYQDISELVYGAKLQPLDFKENAEQSRAAINKWVSNKTEGRITDVIPSEAINELTVLVLVNTIYFKGLWKSKFSPENTRKELFYKADGESCSASMMYQEGKFRYRRVAEGTQVLELPFKGDDITMVLILPKPEKSLAKVEKELTPEVLQEWLDELEEMMLVVHMPRFRIEDGFSLKEQLQDMGLVDLFSPEKSKLPGIVAEGRDDLYVSDAFHKAFLEVNEEGSEAAASTEVEIAGRSLNPNRVTFKANRPFLVFIREVPLNTIIFMGRVANPCVK
modifications: N-linked glycans added by Drosophila S2 cells; not carried by the letters
notes: as for B3
IC50 (factor Xa [11]): 50 nM
IC50 (thrombin [15]): 400 nM
IC50 (thrombin [12]): 450 nM
Rsd. IIa No add; CA expt #8; stg1 conc 200 (thrombin [13]): 6 % of activity without ATIII
rsd. IIa catG; CA expt #8; stg1 conc 200 (thrombin [13]): 7 % of activity without ATIII
rsd. IIa hne; CA expt #8; stg1 conc 200 (thrombin [13]): 12 % of activity without ATIII
rsd. Xa catG; CA expt #8; stg1 conc 200 (factor Xa [14]): 1 % of activity without ATIII
rsd. Xa hne; CA expt #8; stg1 conc 200 (factor Xa [14]): 1 % of activity without ATIII
rsd. Xa no add; CA expt #8; stg1 conc 200 (factor Xa [14]): 1 % of activity without ATIII
IC50 (factor Xa [16]): 38 nM

More lines, in order of falling IC50 (factor Xa [11]), values ahead:

IC50 (factor Xa [11]): 20 nM
IC50 (thrombin [12]): 610 nM
Rsd. IIa No add; CA expt #8; stg1 conc 200 (thrombin [13]): 23 % of activity without ATIII
rsd. IIa catG; CA expt #8; stg1 conc 200 (thrombin [13]): 93 % of activity without ATIII
rsd. IIa hne; CA expt #8; stg1 conc 200 (thrombin [13]): 53 % of activity without ATIII
rsd. Xa catG; CA expt #8; stg1 conc 200 (factor Xa [14]): 2 % of activity without ATIII
rsd. Xa hne; CA expt #8; stg1 conc 200 (factor Xa [14]): 1 % of activity without ATIII
rsd. Xa no add; CA expt #8; stg1 conc 200 (factor Xa [14]): 1 % of activity without ATIII
B2: 7EVEA.454 (other)
chain: SPVDICTAKPRDIPMNPMCIYRSPEKKATEDEGSEQKIPEATNRRVWELSKANSRFATTFYQHLADSKNDNDNIFLSPLSISTAFAMTKLGACNDTLQQLMEVFKFDTISEKTSDQIHFFFAKLNCRLYRKANKASKLVSANRLFGDKSLTFNETYQDISELVYGAKLQPLDFKENAEQSRAAINKWVSNKTEGRITDVIPSEAINELTVLVLVNTIYFKGLWKSKFSPENTRKELFYKADGESCSASMMYQEGKFRYRRVAEGTQVLELPFKGDDITMVLILPKPEKSLAKVEKELTPEVLQEWLDELEEMMLVVHMPRFRIEDGFSLKEQLQDMGLVDLFSPEKSKLPGIVAEGRDDLYVSDAFHKAFLEVNEEGSEAAASTEVEWAGRSLNPNRVTFKANRPFLVFIREVPLNTIIFMGRVANPCVK
modifications: N-linked glycans added by Drosophila S2 cells; not carried by the letters
notes: as for B3

IC50 (factor Xa [11]): 19 nM
IC50 (thrombin [12]): 450 nM
Rsd. IIa No add; CA expt #8; stg1 conc 200 (thrombin [13]): 14 % of activity without ATIII
rsd. IIa catG; CA expt #8; stg1 conc 200 (thrombin [13]): 62 % of activity without ATIII
rsd. IIa hne; CA expt #8; stg1 conc 200 (thrombin [13]): 35 % of activity without ATIII
rsd. Xa catG; CA expt #8; stg1 conc 200 (factor Xa [14]): 2 % of activity without ATIII
rsd. Xa hne; CA expt #8; stg1 conc 200 (factor Xa [14]): 1 % of activity without ATIII
rsd. Xa no add; CA expt #8; stg1 conc 200 (factor Xa [14]): 1 % of activity without ATIII
B4: 7EVEA.453 (other)
chain: SPVDICTAKPRDIPMNPMCIYRSPEKKATEDEGSEQKIPEATNRRVWELSKANSRFATTFYQHLADSKNDNDNIFLSPLSISTAFAMTKLGACNDTLQQLMEVFKFDTISEKTSDQIHFFFAKLNCRLYRKANKASKLVSANRLFGDKSLTFNETYQDISELVYGAKLQPLDFKENAEQSRAAINKWVSNKTEGRITDVIPSEAINELTVLVLVNTIYFKGLWKSKFSPENTRKELFYKADGESCSASMMYQEGKFRYRRVAEGTQVLELPFKGDDITMVLILPKPEKSLAKVEKELTPEVLQEWLDELEEMMLVVHMPRFRIEDGFSLKEQLQDMGLVDLFSPEKSKLPGIVAEGRDDLYVSDAFHKAFLEVNEEGSEAAASTEVEFAGRSLNPNRVTFKANRPFLVFIREVPLNTIIFMGRVANPCVK
modifications: N-linked glycans added by Drosophila S2 cells; not carried by the letters
notes: as for B3
